# Values joined by “and” are separate entries in the source; they are usually repeats but may differ in a detail not shown here. Equal entries are not always repeated.
# T1: cynomolgus monkey CD20 on B cells (cynomolgus monkey, UniProt M4ZHZ6 1-297)
# T1 construct: whole, on cells
# T1 sequence: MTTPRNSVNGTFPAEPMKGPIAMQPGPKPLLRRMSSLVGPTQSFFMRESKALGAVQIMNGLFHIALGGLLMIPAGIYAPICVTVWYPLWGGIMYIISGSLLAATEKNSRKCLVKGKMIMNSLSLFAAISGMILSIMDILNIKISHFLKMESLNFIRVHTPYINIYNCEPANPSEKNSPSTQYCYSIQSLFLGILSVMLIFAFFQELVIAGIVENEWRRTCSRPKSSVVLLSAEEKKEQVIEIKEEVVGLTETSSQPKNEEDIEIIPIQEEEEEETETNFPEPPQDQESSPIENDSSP
# T2: human CD20 on cells (human B cells; Raji, SU-DHL-8, SU-DHL-4, A3KAW, NAMALWA) (human, UniProt P11836 1-297)
# T2 construct: whole, on cells
# T2 sequence (looked up): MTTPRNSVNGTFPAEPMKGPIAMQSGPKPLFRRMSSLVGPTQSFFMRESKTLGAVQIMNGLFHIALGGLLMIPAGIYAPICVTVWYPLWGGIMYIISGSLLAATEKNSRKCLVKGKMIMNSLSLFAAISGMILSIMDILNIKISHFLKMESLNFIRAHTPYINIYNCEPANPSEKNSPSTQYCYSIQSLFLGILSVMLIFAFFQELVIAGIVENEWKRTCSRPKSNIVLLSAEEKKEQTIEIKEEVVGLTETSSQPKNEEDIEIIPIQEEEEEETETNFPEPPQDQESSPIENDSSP
# Columns and labels:
# [1] = biological target: T3, human CD3 on cells (Jurkat cells, human T cells) (human, UniProt P07766 23-207); experiment: cell-based or functional assay
# T3 sequence (P07766 23-207): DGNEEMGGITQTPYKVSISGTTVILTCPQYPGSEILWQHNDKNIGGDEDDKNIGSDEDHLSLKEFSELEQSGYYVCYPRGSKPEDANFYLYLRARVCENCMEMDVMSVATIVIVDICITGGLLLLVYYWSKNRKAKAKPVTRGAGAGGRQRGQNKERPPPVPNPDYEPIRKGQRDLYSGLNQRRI
# [2] = biological target: T3, human CD3 on cells (Jurkat cells, human …); experiment: flow cytometry on Jurkat cells, APC anti-human IgG secondary antibody
# Experimental: The Jurkat cells were thawed, washed, and cultured in an incubator. Jurkat cells were washed and 1×10⁵ Jurkat cells/well were aliquoted into 96-well plate and incubated with test articles for 1 hour at 4° C. After centrifugation and washing, Jurkat cells were further incubated with the secondary antibody APC anti-Human IgG for 30 minutes at 4° C. After centrifugation and washing, the Jurkat cells labelled with antibodies were re-suspended in 2% FBS DPBS and then were analyzed by FACS.
# [3] = biological target: T1, cynomolgus monkey CD20 on B cells; experiment: flow cytometry, monkey B cells
# From the text: (§1) Human and monkey PBMCs were isolated as mentioned above. Human B cells were further isolated from PBMCs using the EasySep™ Human B Cell Isolation Kit (Stem Cell Technologies). Monkey B cells were isolated from PBMCs using the Non-Human B Primate Cell Isolation Kit (Stem Cell Technologies). Purified human or monkey B cells were stained with the testing antibodies as the primary antibody and the APC-labelled anti-human-Fc antibody (BioLegend) as the secondary antibody. After washing, the cells were analyzed on the CytoFLEX flow cytometer (Beckman Coulter) and the data was analyzed by FlowJo software.
# [4] = biological target: T2, human CD20 on cells (human B cells; …); experiment: binding to human B cells
# [5] = biological target: T2, human CD20 on cells (human B cells; …); experiment: flow cytometry, NAMALWA cells
# Experimental: (§2) Raji, SU-DHL-8, SU-DHL-4, A3KAW and NAMALWA were B-cell lymphoma cell lines with various CD20 expression levels on cell surface. Briefly, the test antibodies were serial diluted and were incubated with the tumor cells on ice. After washing, the cells were subsequently incubated with the APC-labelled anti-human-Fc secondary antibody (BioLegend) on ice. The cells were then washed with PBS prior to analysis by the CytoFLEX flow cytometer (Beckman Coulter). The data was analyzed by FlowJo software.
# [6] = biological target: T3, human CD3 on cells (Jurkat cells, human …); experiment: binding to human CD8+ T cells
# [7] = biological target: T4, cynomolgus monkey CD3 on T cells (cynomolgus monkey, UniProt Q95LI5 22-198); experiment: flow cytometry, monkey CD3+ T cells
# T4 construct: whole, on cells
# T4 sequence (Q95LI5 22-198): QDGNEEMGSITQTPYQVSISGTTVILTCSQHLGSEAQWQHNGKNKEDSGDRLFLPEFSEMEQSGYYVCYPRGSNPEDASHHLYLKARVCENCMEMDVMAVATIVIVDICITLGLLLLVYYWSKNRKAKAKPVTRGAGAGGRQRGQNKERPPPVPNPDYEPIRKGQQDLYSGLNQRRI
# From the text: (§3) Human PBMCs were freshly isolated from the blood of healthy donors by density gradient centrifugation using Histopaque-1077 (Sigma). Human CD3+ T cells were further isolated from PBMCs using the Human T Cell Enrichment Kit (Stem Cell Technologies). Monkey PBMCs were isolated from a naïve cynomolgus monkey by density gradient centrifugation using Histopaque-1077 (Sigma). Monkey CD3+ T cells were isolated from PBMCs using the Pan T Cell Isolation Kit Non-Human Primate (Miltenyi Biotec). Purified human or monkey CD3+ T cells were stained with the testing antibodies as the primary antibody and the APC-labelled anti-human-Fc antibody (BioLegend) as the secondary antibody. After washing, the cells were analyzed on the CytoFLEX flow cytometer (Beckman Coulter) and the data was analyzed by FlowJo software.
# [8] = biological target: T2, human CD20 on cells (human B cells; …); experiment: flow cytometry, human B cells
# From the text: as §1
# [9] = biological target: T2, human CD20 on cells (human B cells; …); experiment: flow cytometry, Raji cells
# Experimental: as §2
# [10] = biological target: T3, human CD3 on cells (Jurkat cells, human …); experiment: flow cytometry, human CD3+ T cells
# From the text: as §3
# [11] = biological target: T4, cynomolgus monkey CD3 on T cells; experiment: flow cytometry, purified monkey CD3+ T cells
# [12] = biological target: T3, human CD3 on cells (Jurkat cells, human …); experiment: binding to human CD3+ T cells
# [13] = biological target: T2, human CD20 on cells (human B cells; …); experiment: flow cytometry, SU-DHL-4 cells
# Experimental: as §2
# [14] = biological target: T2, human CD20 on cells (human B cells; …); experiment: flow cytometry, SU-DHL-8 cells
# Experimental: as §2
# [15] = biological target: T2, human CD20 on cells (human B cells; …); experiment: binding to Raji cells
# [16] = biological target: T2, human CD20 on cells (human B cells; …); experiment: flow cytometry, A3KAW cells
# Experimental: as §2
# [17] = biological target: T3, human CD3 on cells (Jurkat cells, human …); experiment: binding to human CD4+ T cells
binder,measurement,setting,value
"TAC2225 (antibody, V domains shown, also called parental cross-reactive anti-CD3 antibody; humanized SP34) VH: EVQLVESGGGLVQPGGSLRLSCAASGFTFNTYAMNWVRQAPGKGLEWVGRIRSKYNNYATYYADSVKGRFTISRDDSKNTLYLQMNSLRAEDTAVYYCVRHGNFGNSYVSWFAYWGQGTLVTVSS VL: QAVVTQEPSLTVSPGGTVTLTCGSSTGAVTTSNYANWVQQKPGQAPRGLIGGTNKRAPGVPARFSGSLLGGKAALTLSGAQPEDEAEYYCALWYSNLWVFGGGTKLTVL",Jurkat NFAT reporter assay EC50,[1],0.02 nM
same,Masking efficiency (Jurkat NFAT reporter assay),[1],1 fold
same,EC50 (read off the curve),[2],~0.7 nM and ~0.3 nM and ~0.5 nM and ~0.6 nM
"TY25606 (bispecific antibody, human IgG1, kappa, N297A, also called SAFEbody/bispecific) light: QIVLSQSPAILSASPGEKVTMTCRASSSVSYIHWFQQKPGKSPKPWIYATSNLASGVPVRFSGSGSGTSYSLTISRVEAEDAATYYCQQWTSNPPTFGGGTKVEIKRTVAAPSVFIFPPSDEQLKSGTASVVCLLNNFYPREAKVQWKVDNALQSGNSQESVTEQDSKDSTYSLSSTLTLSKADYEKHKVYACEVTHQGLSSPVTKSFNRGEC heavy: EVQLVQSGAEVKKPGSSVKVSCKASGYTFTSYNMHWVRQAPGKGLEWIGAIYPGSGDTSYNQKFKGRVTITADKSTSTAYMELSSLRSEDTAVYYCARSTYYGGDWYFNVWGQGTLVTVSSASTKGPSVFPLAPSSKSTSGGTAALGCLVKDYFPEPVTVSWNSGALTSGVHTFPAVLQSSGLYSLSSVVTVPSSSLGTQTYICNVNHKPSNTKVDKKVEPKSCDKTHTCPPCPAPELLGGPSVFLFPPKPKDTLMISRTPEVTCVVVDVSHEDPEVKFNWYVDGVEVHNAKTKPREEQYASTYRVVSVLTVLHQDWLNGKEYKCKVSNKALPAPIEKTISKAKGQPREPQVYTLPPSRKKLTKNQVKLTCLVKGFYPSDIAVEWESNGQPENNYKTTPPVLDCDGSFFLYSKLTVDKSRWQQGNVFSCSVMHEALHNHYTQKSLSLSPGK EVGSYPYDDPDCPSHESDCDQGGGPLGLAGGSQAVVTQEPSLTVSPGGTVTLTCGSSTGAVTTSNYPNWVQQKPGQAPRGLIGGTNKRAPGVPARFSGSLLGGKAALTLSGAQPEDEAEYYCALWYSNLWVFGGGTKLTVLGGGGSGGGGSGGGGSGGGGSEVQLVESGGGLVQPGGSLRLSCAASGFTFNTYAINWVRQAPGKGLEWVGRIRSKYNNYATYYAESVKGRFTISRDDSKNTLYLQINSLRAEDTAVYYCVRHGNFGTSYVSWFAYWGQGTLVTVSSEPKSSDKTHTCPPCPAPELLGGPSVFLFPPKPKDTLMISRTPEVTCVVVDVSHEDPEVKFNWYVDGVEVHNAKTKPREEQYASTYRVVSVLTVLHQDWLNGKEYKCKVSNKALPAPIEKTISKAKGQPREPQVYTDPPSRDELTKNQVSLTCLVDGFYPSDIAVEWESNGQPENCYKTTPPVLDSDGSFFLYSKLTVDKSRWQQGNVFSCSVMHEALHNHYTQDSLSLSPGK",EC50,[3],14.4 nM
same,max MFI,[3],36000 MFI
same,EC50,[4],78.2 nM
same,EC50,[5],90.4 nM
same,Max MFI,[5],656000 MFI
same,EC50,[6],> 2000 nM
same,max MFI,[7],174 MFI
same,EC50,[8],11.7 nM
same,max MFI,[8],51600 MFI
same,EC50,[9],35 nM
same,Max MFI,[9],24200 MFI
same,max MFI,[10],1090 MFI
same,binding result,[11],no binding
same,EC50,[12],> 2000 nM
same,EC50,[13],16 nM
same,Max MFI,[13],2.67e+06 MFI
same,EC50,[14],43 nM
same,Max MFI,[14],5790 MFI
same,EC50,[15],35 nM
same,EC50,[16],121 nM
same,Max MFI,[16],942000 MFI
same,EC50,[17],> 2000 nM
